B1: Insulin A1 (dsDNA)
DNA 1: AGGCCCTAATGGGCCA
DNA 2: TGGCCCATTAGGGCCT
B2: Insulin E1 (dsDNA)
DNA 1: AGCCATCTGCCGACCC
DNA 2: GGGTCGGCAGATGGCT
B3: Insulin A3 (dsDNA)
DNA 1: AGACTCTAATGACCCG
DNA 2: CGGGTCATTAGAGTCT
B4: IAPP A1 (dsDNA)
DNA 1: GGAAATTAATGACAGA
DNA 2: TCTGTCATTAATTTCC
B5: IAPP A2 (dsDNA)
DNA 1: ATGAGTTAATGTAATA
DNA 2: TATTACATTAACTCAT

Molecular target: Pdx1 homeodomain (Pdx1-HD) (Homo sapiens, UniProt P52945 146-206)
Assay: ITC

Pdx1 homeodomain (Pdx1-HD), sequence (P52945 146-206): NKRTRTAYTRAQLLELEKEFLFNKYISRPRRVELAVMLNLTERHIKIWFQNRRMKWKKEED

Compared with B1, B2 is 190-fold higher in Kd: 7 ± 2 nM for the first, 1300 ± 300 nM for the second.

First: B3
Second: B4
The Kd of the first is 5.5-fold lower: 4 ± 1 nM for the first, 22 ± 5 nM for the second.

Work on B5 yielded a Kd of 27 ± 7 nM.

— PMC3800017
